Source: the supplement of paper PMC10567573

B1: KCNA4 (parent)
chain: YQLGEEALLKFREDEGFVREEEDR

Variants of: B1
Test: protein stability index of a GFP-peptide fusion (GPS, HEK-293T) (PSI 1-6); higher = more stable
Conditions: c terminus: a fixed tail appended
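Also: lentivirally expressed fusions sorted by FACS into six bins by GFP to DsRed ratio, PSI derived from sequencing read proportions per bin multiplied by bin number.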

Variant	protein stability index
YQLGEEALLKFREDEGFVKEEEDR [R19K]	4.05
YQLGEEALLKFREDEGFVYEEEDR [R19Y]	4.51
YQLGEEALLKFREDEGFVSEEEDR [R19S]	4.22
YQLGEEALLKFREDEGFVGEEEDR [R19G]	4.85
YQLGEEALLKFREDEGFVCEEEDR [R19C]	4.91
YQLGEEALLKFREDEGFVHEEEDR [R19H]	4.77
YQLGEEALLKFREDEGFVWEEEDR [R19W]	4.4
YQLGEEALLKFREDEGFVMEEEDR [R19M]	4.62
YQLGEEALLKFREDEGFVFEEEDR [R19F]	4.87
YQLGEEALLKFREDEGFVIEEEDR [R19I]	4.36
YQLGEEALLKFREDEGFVQEEEDR [R19Q]	4.42
YQLGEEALLKFREDEGFVEEEEDR [R19E]	4.91
YQLGEEALLKFREDEGFVPEEEDR [R19P]	4.62
YQLGEEALLKFREDEGFVAEEEDR [R19A]	4.91
YQLGEEALLKFREDEGFVNEEEDR [R19N]	4.47
YQLGEEALLKFREDEGFVDEEEDR [R19D]	4.76
YQLGEEALLKFREDEGFVVEEEDR [R19V]	4.59
YQLGEEALLKFREDEGFVLEEEDR [R19L]	4.46
YQLGEEALLKFREDEGFVTEEEDR [R19T]	4.65
YQLGEEALLKFREDEGFVRHEEDR [E20H]	4.49
YQLGEEALLKFREDEGFVRGEEDR [E20G]	3.93
YQLGEEALLKFREDEGFVRCEEDR [E20C]	4.05
YQLGEEALLKFREDEGFVRIEEDR [E20I]	3.4
YQLGEEALLKFREDEGFVRFEEDR [E20F]	3.64

Variant	protein stability index
YQLGEEALLKFREDEGFVRKEEDR [E20K]	4.13
YQLGEEALLKFREDEGFVRAEEDR [E20A]	3.63
YQLGEEALLKFREDEGFVRDEEDR [E20D]	4.38
YQLGEEALLQFREDEGFVREEEDR [K10Q]	4.83
YQLGEEALLRFREDEGFVREEEDR [K10R]	4.09
YQLGEEALLYFREDEGFVREEEDR [K10Y]	3.94
YQLGEEALLVFREDEGFVREEEDR [K10V]	2.88
YQLGEEALLNFREDEGFVREEEDR [K10N]	5.07
YQLGEEALLTFREDEGFVREEEDR [K10T]	4.57
YQLGEEALLSFREDEGFVREEEDR [K10S]	4.43
YQLGEEALLWFREDEGFVREEEDR [K10W]	2.25
YQLGEEALLPFREDEGFVREEEDR [K10P]	5.59
YQLGEEALLKFREWEGFVREEEDR [D14W]	2.81
YQLGEEALLKFREFEGFVREEEDR [D14F]	3.78
YQLGEEALLKFREQEGFVREEEDR [D14Q]	3.88
YQLGEEALLKFREIEGFVREEEDR [D14I]	4
YQLGEEALLKFREGEGFVREEEDR [D14G]	3.45
YQLGEEALLKFREYEGFVREEEDR [D14Y]	3.59
YQLGEEALLKFREAEGFVREEEDR [D14A]	3.32
YQLGEEALLKFREMEGFVREEEDR [D14M]	4.27
YQLGEEALLKFRELEGFVREEEDR [D14L]	4.08
YQLGEEALLKFRETEGFVREEEDR [D14T]	3.98
YQLGEEALLKFREHEGFVREEEDR [D14H]	3.64
YQLGEEALLKFREKEGFVREEEDR [D14K]	3.45

Variant	protein stability index
YQLGEEALLKFREEEGFVREEEDR [D14E]	4.18
YQLGEEALLKFRECEGFVREEEDR [D14C]	4
YQLGEEALLKFRENEGFVREEEDR [D14N]	3.98
YQLGEEALLKFREVEGFVREEEDR [D14V]	3.39
YQLGEEALLKFRESEGFVREEEDR [D14S]	3.56
YQLGEEALLKFREPEGFVREEEDR [D14P]	3.16
YQLGEEALLKFREREGFVREEEDR [D14R]	3.58
YQLGEEALLKFRHDEGFVREEEDR [E13H]	3.96
YQLGEEALLKFRTDEGFVREEEDR [E13T]	4.43
YQLGEEALLKFRSDEGFVREEEDR [E13S]	3.37
YQLGEEALLKFRWDEGFVREEEDR [E13W]	2.39
YQLGEEALLKFRADEGFVREEEDR [E13A]	3.23
YQLGEEALLKFRMDEGFVREEEDR [E13M]	3.84
YQLGEEALLKFRYDEGFVREEEDR [E13Y]	4.02
YQLGEEALLKFRCDEGFVREEEDR [E13C]	2.42
YQLGEEALLKFRKDEGFVREEEDR [E13K]	4
YQLGEEALLKFRLDEGFVREEEDR [E13L]	4.45
YQLGEEALLKFRGDEGFVREEEDR [E13G]	3.71
YQLGEEALLKFRVDEGFVREEEDR [E13V]	3.81
YQLGEEALLKFRQDEGFVREEEDR [E13Q]	4.3
YQLGEEALLKFRDDEGFVREEEDR [E13D]	4.11
YQLGEEALLKFRNDEGFVREEEDR [E13N]	4.5
YQLGEEALLKFRIDEGFVREEEDR [E13I]	3.32
YQLGEEALLKFRRDEGFVREEEDR [E13R]	4.54

Variant	protein stability index
YQLGEEALLKFRFDEGFVREEEDR [E13F]	3.63
YQLGEEALLKFRPDEGFVREEEDR [E13P]	4.22
YQLGEEALLKFREDEGHVREEEDR [F17H]	4.71
YQLGEEALLKFREDEGYVREEEDR [F17Y]	4.86
YQLGEEALLKFREDEGKVREEEDR [F17K]	4.51
YQLGEEALLKFREDEGSVREEEDR [F17S]	4.56
YQLGEEALLKFREDEGWVREEEDR [F17W]	4.59
YQLGEEALLKFREDEGGVREEEDR [F17G]	4.01
YQLGEEALLKFREDEGIVREEEDR [F17I]	4.3
YQLGEEALLKFREDEGCVREEEDR [F17C]	4.88
YQLGEEALLKFREDEGNVREEEDR [F17N]	4.68
YQLGEEALLKFREDEGDVREEEDR [F17D]	4.81
YQLGEEALLKFREDEGLVREEEDR [F17L]	4.61
YQLGEEALLKFREDEGPVREEEDR [F17P]	4.9
YQLGEEALLKFREDEGQVREEEDR [F17Q]	4.5
YQLGEEALLKFREDEGAVREEEDR [F17A]	4.78
YQLGEEALLKFREDEGVVREEEDR [F17V]	4.53
YQLGEEALLKFREDEGRVREEEDR [F17R]	4.13
YQLGEEALLKFREDEGMVREEEDR [F17M]	3.69
YQLGEEALLKFREDEGEVREEEDR [F17E]	4.79
YQLGEEALLKFREDEGTVREEEDR [F17T]	4.5
YQLGEEALLKFREDAGFVREEEDR [E15A]	3.83
